Biological target: T1, apelin-17 (2)
T1 chain: KFRRQRPRLSHKGPMPF

B1: recombinant human neprilysin (rhNEP, Sino Biological) (protein)
chain: YDDGICKSSDCIKSAARLIQNMDATTEPCTDFFKYACGGWLKRNVIPETSSRYGNFDILRDELEVVLKDVLQEPKTEDIVAVQKAKALYRSCINESAIDSRGGEPLLKLLPDIYGWPVATENWEQKYGASWTAEKAIAQLNSKYGKKVLINLFVGTDDKNSVNHVIHIDQPRLGLPSRDYYECTGIYKEACTAYVDFMISVARLIRQEERLPIDENQLALEMNKVMELEKEIANATAKPEDRNDPMLLYNKMTLAQIQNNFSLEINGKPFSWLNFTNEIMSTVNISITNEEDVVVYAPEYLTKLKPILTKYSARDLQNLMSWRFIMDLVSSLSRTYKESRNAFRKALYGTTSETATWRRCANYVNGNMENAVGRLYVEAAFAGESKHVVEDLIAQIREVFIQTLDDLTWMDAETKKRAEEKALAIKERIGYPDDIVSNDNKLNNEYLELNYKEDEYFENIIQNLKFSQSKQLKKLREKVDKDEWISGAAVVNAFYSSGRNQIVFPAGILQPPFFSAQQSNSLNYGGIGMVIGHEITHGFDDNGRNFNKDGDLVDWWTQQSASNFKEQSQCMVYQYGNFSWDLAGGQHLNGINTLGENIADNGGLGQAYRAYQNYIKKNGEEKLLPGLDLNHKQLFFLNFAQVWCGTYRPEYAVNSIKTDVHSPGNFRIIGTLQNSAEFSEAFHCRKNSYMNPEKKCRVW
Km: 190 µM
kcat (1/S): 3.4 1/S
kcat/Km (1/MS): 18000 1/MS

— patent publication US20200239537
